Experimental data published in publication PMC11487272.

Legend:
[1] = molecular target: cFLIP^tDED_H7G (cFLIP tandem DED, residues 1-181, H7G) (UniProt O15519); experiment: crystal structure
[2] = molecular target: wild-type cFLIP^tDED as used in the ternary co-purification (UniProt O15519); experiment: cryo-EM structure

Row | Substance | stoichiometry N (molecules in the complex) [1] | stoichiometry N (molecules in the complex (Complex D)) [2] | stoichiometry N (molecules in the complex (Complex E)) [2] | stoichiometry N (molecules in the complex (Complex F)) [2] | stoichiometry N (molecules in the complex (Complex G)) [2]
1 | cFLIP^tDED_H7G (cFLIP tandem DED, residues 1-181, H7G) (from UniProt O15519 1-181) (domain or fragment) | 6 |  |  |  | 
2 | wild-type cFLIP^tDED as used in the ternary co-purification (from UniProt O15519 1-181) (domain or fragment) |  | 5 | 6 | 8 | 4
